Test results published in a protein production outcome set (Wang et al. 2014).

Test: label from the status in PepcDB records

Sequence	protein production
MEPSGGEQEPGAVRFLDLPWEDVLLPHVLNRVPLRQLLRLQRVSRAFRSLVQLHLAGLRRFDAAQVGPQIPRAALARLLRDAEGLQELALAPCHEWLSDEDLVPVLARNPQLRSVALGGCGQLSRRALGALAEGCPRLQRLSLAHCDWVDGLALRGLADRCPALEELDLTACRQLKDEAIVYLAQRRGAGLRSLSLAVNANVGDAAVQELARNCPELHHLDLTGCLRVGSDGVRTLAEYCPVLRSLRVRHCHHVAESSLSRLRKRGVDIDVEPPLHQALVLLQDMAGFAPFVNLQV	not failed
MRSSKMDMPIVLSKRHRRLRSMKDCEPGLPYNEIVENGKRIDLCYSKQYKKYTKKIEIRVGTSILHNKLLRIFPNIVKIYSKHFINLPDLITENTEKRELIFIELENLIIGGGTSGLGVLSEISKEEKTLLISSNIESNTDIPYPLPQINKDEFSKLLRDTINENKDRILEGILLGKFDEGIGFLTKDKILMVRAKRVFLATGGRYIPPIFDGNDIPGIISKNLYLRYGNRITKAIALGNSDDIIKVLFKVEKRVIINNGVLFLSKYYKELIDELGVEIINTNNLKVKREKGGMLKIITNERSFDSNILVYAIVKQPKIDHSYNIGIPYNFSEYFHIYMPIHSIEGKTNDNIYIVGGMRGISDEYTSFLSGKTAVNEKYLDEFINNLKDYTYIYDYYYQKNPKENPSPYIYGNKGYVCECEDITLSEVNRQVGRGFSKVEEIKRTIGLGTGECQGKLCTYSLGSFLGDRQLITFRTPLYRMVI	failed
MGCDFAIAKDFLLFFLTKPISMKLSVIIPIYNEIQTIEKILKKITTVMPEIPKEIVMVDDGSKDGTREWLVDTFGDPEQHPVLANVNLAGKFQCFPLDQSAETNGDRQGNSFVMPKEWEVKVIFHRQNQGKGGALHTAFAAATGDVLIIQDADLEYDPEDWGPMWKLIDGGWADVVYGSRFYGNPHRVLYFHHYLGNKLITSLIDLVCNINLTDIEVCYKMFRREVLEDLRLTCNDFGFEVEFTMKVTRSPKRWRIYEVGVAYYGRTFAEGKKINWRDGVKALGYIAKFWLTNALEHHHHHH	failed
MPLDAPPLLPSADSDSTVSILQAKGDAPPAAATAAVGWPLLALTTWFGSGLIPLAPGTMGSIAALPFAWAIAWTWGPWALAPAAALVFVIGTLAAEAHVRRSGEKDPQRIVIDEVAGQWLTLAVAPLDPLAYGVGLVLFRICDITKPWPACWADRSVPGGFGIMLDDGFAAVYSTCMMALYVHYFM	failed
MSLNGITKYVEKLTFFNIQSGKQVEFNRDEKVILSNVPFIQQLPELDRGCEVTSLAMMLQYAGITVDKMKLANEIKKVDFMNDGVRGNPNEGFVGNIYTFSESGYGVYHGPLFQLAKKYLPNKAVDLTGKSIEELYKSVKAGQPVVIITNATFAPLDEDEFTTWETNNGDVSITYNEHCVVLIGYDQESVYIRDPLKDSLDVKVPREKFEQAWVQMGSQAISYVKRSKEGHHHHHH	not failed
MNMIEPAPVRKSVTVRTSPQQAFDVFVSGMGTWWIKGHSLTQSGQKTVVVEAVAGGRWYEIGNAGEECEWGRVIACDRPNRVLFDWQLNADFDYDPGLHTEVEVLFEANGEGGTTVILEHRHLEKYGVKAKEMRGIFDSENGWGGLLASYMEKAAA	failed
SLPHCETLLLEPIEGVLRITLNRPQSRNAMSLAMVGELRAVLAAVRDDRSVRALVLRGADGHFCAGGDIKDMAGARAAGAEAYRTLNRAFGSLLEEAQAAPQLLVALVEGAVLGGGFGLACVSDVAIAAADAQFGLPETSLGILPAQIAPFVVRRIGLTQARRLALTAARFDGREALRLGLVHFCEADADALEQRLEETLEQLRRCAPNANAATKALLLASESGELGALLDDAARQFAEAVGGAEGS	failed
MQRLLLANDLPGVGKVALATSIPIAAACQVETMLLPTVLLSSHTGGFPDVVIEDMTDLNQAYFEQWKNLNLELAGILSGYCRNPQQLSQLAMYAKHTETPLIVDPIMGDSGRLYTGFTSSYVEAMKELTQSAQLILPNITEASLLTGRNYLGDSYDIHDIEDLLEALAEQVSADIVLTGISFDDSQIGVAYFQQETGEITTYMSKKYPANFFGTGDILSTLLAVATIQQINLHQAIPLALDFIDKSLERTLALDRDLKFGISFEPFLAELQQAFQILKEKL	failed
MPRSCDVVVVNYNAGLLLEDCVISVLAQDINRLVLVDNASHDGSLEQVATRFAADERLLILRNPSNTGFAAACNLGASHCEQPHILFLNPDTVLQPGALQGMIDALRHTHDLGMAGGLLCNFDGSEQPGGRRVFPTPRRAVVRALNLSGLAWLSPRLFSDFLLHREPLPSRPTQVEAISGACMLVKRKALDSVGGWDEGYFLHCEDLDLCMRFRQEGWKVCFVPQARIFHAWGACSRTRPVFVEWHKHRGMIRFYGKFFREDYPRVLSWSICAGVWLRFSFVVGYHWLAQLGRILGQPR	failed
MLLSIITVAFRNLEGIVKTHASLAHLAQVEDISFEWIVVDGGSNDGTREYLENLNGIFNLRFVSEPDNGIYDAMNKGIAMAQGKFALFLNSGDIFHQNAANFVRKLKMQKDNVMITGDALLDFGDGHKIKRSAKPGWYIYHSLPASHQAIFFPVSGLKKWRYDLEYKVSSDYALAAKMYKAGYAFKKLNGLVSEFSMGGVSTTNNMELCADAKKVQRQILHVPGFWAELSWHLRQRTTSKTKALYNKV	failed
MKKMLKVMLATLVLGWAVMAHAEDPHVEYTDAIGKGDLKVVKQYFNNPYKVDELFFAWSGLEIAANKGQLEMVKFFVENGADVNYKHPITKMTALHLAAYQGNKDVVKYLIDHGADVNAKLRGNVSILRALRDEGRTDMVDFLIAAGAKDDGCQEKKCY	failed
MRTVLNILNFVLGGFATTLGWLLATLVSIVLIFTLPLTRSCWEITKLSLVPYGNEAIHVDELNPAGKNVLLNTGGTVLNIFWLIFFGWWLCLMHIATGIAQCISIIGIPVGIANFKIAAIALWPVGRRVVSVETAQAAREANARRRFE	failed
EAPLLYGDSSPEIVLVGHGSTYGVIKEIVDIFSKDKKIAMMHFSQIYPFPERDRFDYIEFLKNANLVISVENNATGQFAKLMRAETGFEFARQILKYDGRPFTIEKLKEEIDAC	not failed
MVKHARVRAPELVGRGGWINTGDRELSLAALRGRIVVLDFWTFCCVNCLHALDELRELEERHRDTVVIVGVHSPKFTHEAEHRAVLDAVERYSVEHPVLDDPERVTWRQYAVRAWPTLAVIDPEGYVVAQYTGEGHAHAIQRLVEELEARHAAKGTLRRGDAPYVAPEPEPTTLRFPGKAVSLPSGTFLVSDTTRHQLVELAEDGESPVRRIGSGRRGFTDGPADRAEFSEPQGLALLGDGSVVVADTVNHALRRYEPVTGEVTTLAGTGRQHRPGEPSRGAARAVSLSSPWDVALWNDRVWIAMAGVHQLWAYDPRDGSVTVTAGTGNEGLVDGPGPEAWFAQPSGLSATDDRLWVADSETSALRWVELDGTVRTAVGTGLFDFGHRDGPAARALLQHPLGVAALPDGSVVVADTYNHALRRYAPPTGEVSTLATDLREPSDAVVVGGDVLVVESARHRLTRLRLPHDALGTGSGEAVLRGTTEAAPGTLRLEVAFRALAGQKLDQRYGPATRLLVSATPPELLRAGEGAGTELSRSLDLDPSVPEGMLHVSATAASCDDDLDVPYPACHVHQKDWKIPVRLVEGASDRLPLVLTGVDTA	failed
MNSYDFITALVPIILIIIGLGIIKKPAYYVIPISLIATVAIVIFYKNLGIVNTSLAMLEGALMGIWPIATVIIAAIFTYKMSEDQKDIETIKNILSNVSSDRRIIVLLVAWGFGNFLEGVAGYGTAVAIPVSILIAMGFEPFFACLICLIMNTSSTAYGSVGIPITSLAQATNLDVNIVSSEIAFQLILPTLTIPFVLVILTGGGIKGLKGVFLLTLLSGMSMAISQVFISKTLGPELPAILGSILSMTITIVYARFFGNKETTERQSKNTISLSKGIIACSPYILIVTFIVLVSPLFNKIHEYLKTFQSTISIYPEANPLHFKWIISPGFLIILATTISYSIRGVPMLKQLKIFTLTLKKMALSSFIIICIVAISRLMTHSGMIRDLANGISIITGKFGPLFSPLIGAIGTFLTGSDTVSNVLFGPLQTQMAENIGANPYWLAAANTTGATGGKMISPQNITIATTTAGLIGQEGKLLSKTIIYALYYILATGLLVYLV	failed
MHEIFTMMLAVYDRAALMLICLFFLIRLRLFRELLHKSAHTPKELLAVTAIFSLFALFSTWSGVPVEGSLVNVRIIAVMSGGILFGPWVGAIVGAIAGVHRYLIDIDGVTAVPCFITSIVAGLLSGLINRKVAREQRWKIGILAGMMCETLTMILVVVWAPSLSLGVDIVSKIGIPMILGSVCIGFIVLLVQSVEGEKEASAARQAKLALDIANKTLPLFRHVNSDSLRQVCEIIRRDITADAVAITNTEHVLAYVGVGEANYQRHDDMISPTTRQAIRYGKIIIKNNDEAHRTPEIHSLMVIPLWEKGVVTGTLKIYYCHAHRITSTLQEMAIGLSQIISTQLEVSRAEQLREMANKAELRALQSKINPHFLFNALNAISSSIRLNPDTARQLIFNLSRYLRYNIELKDDEQIDIKRELYQIKDYIAIEQARFGDKLTVIYDIDDDVSCVIPSLLIQPLVENAIVHGIQPCKGKGVVTIGINECGNRVRISVRDTGNGIDPAVVARVEADEMPGNKIGLLNVHHRVKLLYGEGLHIRNLTPGTEIAFYVPNNSTPQALTESLLS	failed
MDEKLVKEVIFSFREVQRKTHHVLAEEAANREITTTQLLAIRELQKESDLTLGELAERMKLGKSTVSGIVDRLVKAGFLKRTRNESNRRALSLELTEKGATKAAETYHVFFNRLEPILEIGEERLKEMLEMHQEIITILEREGARD	failed
MKSFSIPIRFMLISSFFMSFGYFAVYAFLAIYLLSFLHFSTFQVGTVLTVIIITSRVIPLFSGLIADKIGYIIMMIAGLFLRGIGFIALGICSDFYTVSISSALIGFGTAFYEPAARAIFGSQPAHLRKNLFTYLNLSFNCGAIIGPIAGGFLLLLDPIYAFSLTGSLMLLFALIFYLLKNHFQVTTESTSIALGIQTILQNKSFLLFSFIMIFFYIMFTQLTVALPLHMKNISNSNQLATLVITINAITGVIFMVLFRKLFHKYNTLSFIKYGILLMSISFLLIPLFQHPYWLFICVIFFTIGETLVLPNADIAIANYSNESYTATFFGFYQLSLAFGFIIGNYTGTWFKSKLNGMYTPWLIFGGIGLIGFISLHILNIKKERSKEDIYLLEKY	failed
TIDIDLQKKVESLLEKQISKLRSQGAKDMDNALMVVQNPKNGDILAIAGKQIDKQGKLKDYDIGNFTAQYTVGSSVKGGTLLAGYQNKAINVGETMVDEPLKFQGGLTKRSYFNKNGHVSIDDKQALMHSSNVYMFKTALKLAGDPYTSGMSLPNNIADAGRKLRKGLNQVGLGLKTGIDLPNETPGQIEPLTNNPGNYLDLAIGQYDTYTPLQLSQYVSTIANDGYRIQPHIGLSIYESTNKDETGPLKRKIKGNVLNKVNNSNDEIKEVQEGFKMAFNEKQGTGYASFRNTVVPSAGKTGTAEVFQDGEPRVNSTYIGYAPVDDPKLSFSIVYTNQPVPPPWLNGGDLGRDVINYYFKDKDNKKDDSQSNNEEKED	failed
MDSSNYFYGGNNICIINTKWGKHSGIGGYAEIIDTLVGNFTNISSWAKIGIRDHIHTNFLICDFVYKDNDHIMPPGISSFEDYWVKIGNDVWVGTNVTILRGVEVGDGAVIAAGSVVTKSIPPYAIVGGNPAKFIKWRFPFEVREKLLEIKLEHHHHHH	failed
MQFEVLKRFFPKESLKNCKGALWVHTASIGEFNTFLPILKELKREHRILLTYFSPRAREYLKTKSDFYDCLHPLPLDNPFSVKRFEELSKPKALIVVEREFWPSLIIFTKVPKILVNAYAKGSLIEKILSKKFDLIIMRTQEDVEKFKTFGAKRVFSCGNLKFICQKGKGIKLKGEFIVAGSIHTGEVEIILKAFKEIKKTYSSLKLILVPRHIENAKIFEKKARDFGFKTSFFENLEGDVILVDRFGILKELYPVGKIAIVGGTFVNIGGHNLLEPTCWGIPVIYGPYTHKVNDLKEFLEKEGAGFEVKNETELVTKLTELLSVKKEIKVEEKSREIKGCYLEKLREFLRGL	failed
VISSDVIRGYVDTIILSLLIEGDSYGYEISKNIRIKTDELYVIKETTLYSAFARLEKNGYIKSYYGEETQGKRRTYYRITPEGIKYYKQKCEEWELTKKVINKFVKELESNGDN	not failed
